{"source": "IntAct's records for PubMed 20890290", "parents": {"B1": {"name": "Protein dom34 (Schizosaccharomyces pombe (strain ATCC 38366 / 972)), Q9USL5 (parent)", "chain": "MKLIQKNIEKNGSGWITMCPEEPEDMWHLYNILQVGDQLKASTVRRVVKVGATGSTSGSRVVMKLRILVENMDFDTKAAQLHIKGRTTEYHPEVKMGSYHTLDLELHRNFTLYKNEWDAFALDRVDAACNPSRNAEIGAVVLDEGLANICLITDYMTILRQRIDQVIPRKRRGDSSAYQKGLDKFYDSVFQSINSEFDFDKLKVVILASPGFVARGLYDYIFSMAVKLDLKQIVKSKNKFVILHSSTGHIHSLNEILKDPAVESKLADTKYVQEIRVLNKFYDVMNEDDRKAWYGPNHVLKAFELGAIGELLISDSLFRSSDIATRKKWVSLVEGVKEINCPVYIFSSLHESGKQLDLLSGIAAILTYPVDEEDISEDEEDEESQNFEHS", "partner": "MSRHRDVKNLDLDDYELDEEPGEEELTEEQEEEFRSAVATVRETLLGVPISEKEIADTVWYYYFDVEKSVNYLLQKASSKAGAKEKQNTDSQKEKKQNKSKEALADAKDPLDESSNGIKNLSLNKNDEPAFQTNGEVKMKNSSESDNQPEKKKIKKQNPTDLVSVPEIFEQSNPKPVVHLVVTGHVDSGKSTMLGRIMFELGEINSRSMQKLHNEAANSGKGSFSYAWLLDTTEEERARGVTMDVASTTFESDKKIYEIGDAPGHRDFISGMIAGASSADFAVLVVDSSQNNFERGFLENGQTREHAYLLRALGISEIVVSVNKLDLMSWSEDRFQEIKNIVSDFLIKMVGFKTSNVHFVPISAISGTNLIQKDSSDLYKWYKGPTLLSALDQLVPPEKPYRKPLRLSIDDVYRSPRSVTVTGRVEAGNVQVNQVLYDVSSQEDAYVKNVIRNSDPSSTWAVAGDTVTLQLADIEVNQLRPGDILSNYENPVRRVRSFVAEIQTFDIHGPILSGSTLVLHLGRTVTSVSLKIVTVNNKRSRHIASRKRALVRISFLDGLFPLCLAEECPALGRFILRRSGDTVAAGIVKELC"}, "B2": {"name": "Elongation factor 1 alpha-like protein (Schizosaccharomyces pombe (strain ATCC 38366 / 972)), O74774 (parent)", "chain": "B1 partner", "partner": "B1 chain"}}}
{"variants_of": "B1", "conditions": "with hbs1_schpo hbs1, O74774"}
{"variant": "MKLIQKNIEKNGSGWITMCPEEPEDMWHLYNILQVGDQLKASTVRRVVKVGATGSTSGSRVVMKLRILVENMDFDTKAAQLHIKGRTTEYHPEVKMGSYHTLDLELHRNFTLYKNEWDAFALDRVDAACNPSRNAEIGAVVLDEGLANICLITDYMTILRQRIAQVIPRKRRGDSSAYQKGLDKFYDSVFQSINSEFDFDKLKVVILASPGFVARGLYDYIFSMAVKLDLKQIVKSKNKFVILHSSTGHIHSLNEILKDPAVESKLADTKYVQEIRVLNKFYDVMNEDDRKAWYGPNHVLKAFELGAIGELLISDSLFRSSDIATRKKWVSLVEGVKEINCPVYIFSSLHESGKQLDLLSGIAAILTYPVDEEDISEDEEDEESQNFEHS", "note": "[D164A]", "effect of a mutation on the interaction": "decreasing interaction"}
{"variant": "MKLIQKNIEKNGSGWITMCPEEPEDMWHLYNILQVGDQLKASTVRRVVKVGATGSTSGSRVVMKLRILVENMDFDTKAAQLHIKGRTTEYHPEVKMGSYHTLDLELHRNFTLYKNEWDAFALDRVDAACNPSRNAEIGAVVLDEGLANICLITDYMTILRQAIDQVIPRKRRGDSSAYQKGLDKFYDSVFQSINSEFDFDKLKVVILASPGFVARGLYDYIFSMAVKLDLKQIVKSKNKFVILHSSTGHIHSLNEILKDPAVESKLADTKYVQEIRVLNKFYDVMNEDDRKAWYGPNHVLKAFELGAIGELLISDSLFRSSDIATRKKWVSLVEGVKEINCPVYIFSSLHESGKQLDLLSGIAAILTYPVDEEDISEDEEDEESQNFEHS", "note": "[R162A]", "effect of a mutation on the interaction": "decreasing interaction"}
{"variants_of": "B2", "conditions": "with dom34_schpo dom34, Q9USL5"}
{"variant": "MSRHRDVKNLDLDDYELDEEPGEEELTEEQEEEFRSAVATVRETLLGVPISEKEIADTVWYYYFDVEKSVNYLLQKASSKAGAKEKQNTDSQKEKKQNKSKEALADAKDPLDESSNGIKNLSLNKNDEPAFQTNGEVKMKNSSESDNQPEKKKIKKQNPTDLVSVPEIFEQSNPKPVVHLVVTGHVDSGKSTMLGRIMFELGEINSRSMQKLHNEAANSGKGSFSYAWLLDTTEEERARGVTMDVASTTFESDKKIYEIGDAPGHRDFISGMIAGASSADFAVLVVDSSQNNFERGFLENGQTREHAYLLRALGISEIVVSVNKLDLMSWSEDRFQEIKNIVSDFLIKMVGFKTSNVHFVPISAISGTNLIQKDSSDLYKWYKGPTLLSALDQLVPPEKPYRKPLRLSIDAVYRSPRSVTVTGRVEAGNVQVNQVLYDVSSQEDAYVKNVIRNSDPSSTWAVAGDTVTLQLADIEVNQLRPGDILSNYENPVRRVRSFVAEIQTFDIHGPILSGSTLVLHLGRTVTSVSLKIVTVNNKRSRHIASRKRALVRISFLDGLFPLCLAEECPALGRFILRRSGDTVAAGIVKELC", "note": "[D411A]", "effect of a mutation on the interaction": "decreasing interaction"}
{"variant": "MSRHRDVKNLDLDDYELDEEPGEEELTEEQEEEFRSAVATVRETLLGVPISEKEIADTVWYYYFDVEKSVNYLLQKASSKAGAKEKQNTDSQKEKKQNKSKEALADAKDPLDESSNGIKNLSLNKNDEPAFQTNGEVKMKNSSESDNQPEKKKIKKQNPTDLVSVPEIFEQSNPKPVVHLVVTGHVDSGKSTMLGRIMFELGEINSRSMQKLHNEAANSGKGSFSYAWLLDTTEEERARGVTMDVASTTFESDKKIYEIGDAPGHRDFISGMIAGASSADFAVLVVDSSQNNFERGFLENGQTREHAYLLRALGISEIVVSVNKLDLMSWSEDRFQEIKNIVSDFLIKMVGFKTSNVHFVPISAISGTNLIQKDSSDLYKWYKGPTLLSALDQLVPPEKPYRKPLRLSIDDVYRSPRSVTVTGRVEAGNVQVNQVLYDVSSQEDAYVKNVIRNSDPSSTWAVAGDTVTLQLADIEVNQLRPGDILSNYENPVRRVRSFVAEIQTFDIHGPILSGSTLVLHLGATVTSVSLKIVTVNNKRSRHIASRKRALVRISFLDGLFPLCLAEECPALGRFILRRSGDTVAAGIVKELC", "note": "[R523A]", "effect of a mutation on the interaction": "decreasing interaction"}
{"variant": "MSRHRDVKNLDLDDYELDEEPGEEELTEEQEEEFRSAVATVRETLLGVPISEKEIADTVWYYYFDVEKSVNYLLQKASSKAGAKEKQNTDSQKEKKQNKSKEALADAKDPLDESSNGIKNLSLNKNDEPAFQTNGEVKMKNSSESDNQPEKKKIKKQNPTDLVSVPEIFEQSNPKPVVHLVVTGHVDSGKSTMLGRIMFELGEINSRSMQKLHNEAANSGKGSFSYAWLLDTTEEERARGVTMDVASTTFESDKKIYEIGDAPGHRDFISGMIAGASSADFAVLVVDSSQNNFERGFLENGQTREHAYLLRALGISEIVVSVNKLDLMSWSEDRFQEIKNIVSDFLIKMVGFKTSNVHFVPISAISGTNLIQKDSSDLYKWYKGPTLLSALDQLVPPEKPYRKPLRLSIDDVYRSPRSVTVTGRVEAGNVQVNQVLYDVSSQEDAYVKNVIRNSDPSSTWAVAGDTVTLQLADIEVNQLRPGDILSNYENPVRRVRSFVAEIQTFDIHGPILSGSTLVLHLGRTVTSVSLAIVTVNNKRSRHIASRKRALVRISFLDGLFPLCLAEECPALGRFILRRSGDTVAAGIVKELC", "note": "[K531A]", "effect of a mutation on the interaction": "decreasing interaction"}
{"variant": "MSRHRDVKNLDLDDYELDEEPGEEELTEEQEEEFRSAVATVRETLLGVPISEKEIADTVWYYYFDVEKSVNYLLQKASSKAGAKEKQNTDSQKEKKQNKSKEALADAKDPLDESSNGIKNLSLNKNDEPAFQTNGEVKMKNSSESDNQPEKKKIKKQNPTDLVSVPEIFEQSNPKPVVHLVVTGHVDSGKSTMLGRIMFELGEINSRSMQKLHNEAANSGKGSFSYAWLLDTTEEERARGVTMDVASTTFESDKKIYEIGDAPGHRDFISGMIAGASSADFAVLVVDSSQNNFERGFLENGQTREHAYLLRALGISEIVVSVNKLDLMSWSEDRFQEIKNIVSDFLIKMVGFKTSNVHFVPISAISGTNLIQKDSSDLYKWYKGPTLLSALDQLVPPEKPYRKPLRLSIDDVYRSPRSVTVTGRVEAGNVQVNQVLYDVSSQEDAYVKNVIRNSDPSSTWAVAGDTVTLQLADIEVNQLRPGDILSNYENPVRRVRSFVAEIQTFDIHGPILSGSTLVLHLGRTVTSVSLKIVTVNNKRSRHIASRKRALVRISFLAGLFPLCLAEECPALGRFILRRSGDTVAAGIVKELC", "note": "[D557A]", "effect of a mutation on the interaction": "decreasing interaction"}
{"variant": "MSRHRDVKNLDLDDYELDEEPGEEELTEEQEEEFRSAVATVRETLLGVPISEKEIADTVWYYYFDVEKSVNYLLQKASSKAGAKEKQNTDSQKEKKQNKSKEALADAKDPLDESSNGIKNLSLNKNDEPAFQTNGEVKMKNSSESDNQPEKKKIKKQNPTDLVSVPEIFEQSNPKPVVHLVVTGHVDSGKSTMLGRIMFELGEINSRSMQKLHNEAANSGKGSFSYAWLLDTTEEERARGVTMDVASTTFESDKKIYEIGDAPGHRDFISGMIAGASSADFAVLVVDSSQNNFERGFLENGQTREHAYLLRALGISEIVVSVNKLDLMSWSEDRFQEIKNIVSDFLIKMVGFKTSNVHFVPISAISGTNLIQKDSSDLYKWYKGPTLLSALDQLVPPEKPYRKPLRLSIDDVYRSPRSVTVTGRVEAGNVQVNQVLYDVSSQEDAYVKNVIRNSDPSSTWAVAGDTVTLQLADIEVNQLRPGDILSNYENPVRRVRSFVAEIQTFDIHGPILSGSTLVLHLGRTVTSVSLKIVTVNNKRSAHIASRKRALVRISFLDGLFPLCLAEECPALGRFILRRSGDTVAAGIVKELC", "note": "[R541A]", "effect of a mutation on the interaction": "decreasing interaction"}
{"variant": "MSRHRDVKNLDLDDYELDEEPGEEELTEEQEEEFRSAVATVRETLLGVPISEKEIADTVWYYYFDVEKSVNYLLQKASSKAGAKEKQNTDSQKEKKQNKSKEALADAKDPLDESSNGIKNLSLNKNDEPAFQTNGEVKMKNSSESDNQPEKKKIKKQNPTDLVSVPEIFEQSNPKPVVHLVVTGHVDSGKSTMLGRIMFELGEINSRSMQKLHNEAANSGKGSFSYAWLLDTTEEERARGVTMDVASTTFESDKKIYEIGDAPGHRDFISGMIAGASSADFAVLVVDSSQNNFERGFLENGQTREHAYLLRALGISEIVVSVNKLDLMSWSEDRFQEIKNIVSDFLIKMVGFKTSNVHFVPISAISGTNLIQKDSSDLYKWYKGPTLLSALDQLVPPEKPYRKPLRLSIDDVYRSPRSVTVTGRVEAGNVQVNQVLYDVSSQEDAYVKNVIRNSDPSSTWAVAGDTVTLQLADIEVNQLAPGDILSNYENPVRRVRSFVAEIQTFDIHGPILSGSTLVLHLGRTVTSVSLKIVTVNNKRSRHIASRKRALVRISFLDGLFPLCLAEECPALGRFILRRSGDTVAAGIVKELC", "note": "[R480A]", "effect of a mutation on the interaction": "decreasing interaction"}
